In patent US20260218270A1:

What was measured:
[1] = target: T1, fusion protein of SEQ ID NO: 16 (Nanoluc luciferase at the C-terminus, VWF A2 domain aa1574-1668, Flag-tag, C-terminal His-tag)
T1 chain: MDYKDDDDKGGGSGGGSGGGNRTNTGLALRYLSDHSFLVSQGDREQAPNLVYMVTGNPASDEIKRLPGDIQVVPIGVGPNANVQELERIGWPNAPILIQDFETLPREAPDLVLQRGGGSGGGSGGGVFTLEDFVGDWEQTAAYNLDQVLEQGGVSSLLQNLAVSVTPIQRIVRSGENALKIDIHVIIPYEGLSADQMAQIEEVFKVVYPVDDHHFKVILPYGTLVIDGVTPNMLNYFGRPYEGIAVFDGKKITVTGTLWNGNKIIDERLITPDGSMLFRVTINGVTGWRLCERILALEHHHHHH

[2] = target: T2, N-NLuc-VWFA2-C fusion protein (SEQ ID NO: 17)
T2 chain: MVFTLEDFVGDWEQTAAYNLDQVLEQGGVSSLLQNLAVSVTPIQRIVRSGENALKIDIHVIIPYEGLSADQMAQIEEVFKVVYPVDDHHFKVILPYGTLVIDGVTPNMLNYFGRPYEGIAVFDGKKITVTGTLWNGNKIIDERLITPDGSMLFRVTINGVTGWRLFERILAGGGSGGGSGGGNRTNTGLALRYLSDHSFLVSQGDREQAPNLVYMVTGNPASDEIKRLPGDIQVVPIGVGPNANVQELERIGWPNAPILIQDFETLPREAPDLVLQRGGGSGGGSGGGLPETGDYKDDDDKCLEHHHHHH

[3] = target: T3, fusion protein of SEQ ID NO: 15 (Nanoluc luciferase at the N-terminus, VWF A2 domain aa1574-1668, Flag-tag, C-terminal His-tag)
T3 chain: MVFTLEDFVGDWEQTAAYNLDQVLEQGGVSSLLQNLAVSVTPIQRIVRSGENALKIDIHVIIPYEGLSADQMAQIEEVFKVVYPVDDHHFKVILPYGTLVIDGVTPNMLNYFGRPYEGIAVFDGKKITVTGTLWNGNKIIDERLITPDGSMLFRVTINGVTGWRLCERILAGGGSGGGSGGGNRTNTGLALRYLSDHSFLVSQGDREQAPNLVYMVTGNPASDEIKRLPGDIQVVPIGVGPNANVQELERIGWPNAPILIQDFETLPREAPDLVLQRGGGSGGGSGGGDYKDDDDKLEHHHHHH

[4] = target: fusion protein of SEQ ID NO: 16 (Nanoluc luciferase at the C-terminus, VWF A2 domain aa1574-1668, Flag-tag, C-terminal His-tag); test: cell-based or functional assay

B1: ADAMTS13 (protein)
chain: AAGGILHLELLVAVGPDVFQAHQEDTERYVLTNLNIGAELLRDPSLGAQFRVHLVKMVILTEPEGAPNITANLTSSLLSVCGWSQTINPEDDTDPGHADLVLYITRFDLELPDGNRQVRGVTQLGGACSPTWSCLITEDTGFDLGVTIAHEIGHSFGLEHDGAPGSGCGPSGHVMASDGAAPRAGLAWSPCSRRQLLSLLSAGRARCVWDPPRPQPGSAGHPPDAQPGLYYSANEQCRVAFGPKAVACTFAREHLDMCQALSCHTDPLDQSSCSRLLVPLLDGTECGVEKWCSKGRCRSLVELTPIAAVHGRWSSWGPRSPCSRSCGGGVVTRRRQCNNPRPAFGGRACVGADLQAEMCNTQACEKTQLEFMSQQCARTDGQPLRSSPGGASFYHWGAAVPHSQGDALCRHMCRAIGESFIMKRGDSFLDGTRCMPSGPREDGTLSLCVSGSCRTFGCDGRMDSQQVWDRCQVCGGDNSTCSPRKGSFTAGRAREYVTFLTVTPNLTSVYIANHRPLFTHLAVRIGGRYVVAGKMSISPNTTYPSLLEDGRVEYRVALTEDRLPRLEEIRIWGPLQEDADIQVYRRYGEEYGNLTRPDITFTYFQPKPRQAWVWAAVRGPCSVSCGAGLRWVNYSCLDQARKELVETVQCQGSQQPPAWPEACVLEPCPPYWAVGDFGPCSASCGGGLRERPVRCVEAQGSLLKTLPPARCRAGAQQPAVALETCNPQPCPARWEVSEPSSCTSAGGAGLALENETCVPGADGLEAPVTEGPGSVDEKLPAPEPCVGMSCPPGWGHLDATSAGEKAPSPWGSIRTGAQAAHVWTPAAGSCSVSCGRGLMELRFLCMDSALRVPVQEELCGLASKPGSRREVCQAVPCPARWQYKLAACSVSCGRGVVRRILYCARAHGEDDGEEILLDTQCQGLPRPEPQEACSLEPCPPRWKVMSLGPCSASCGLGTARRSVACVQLDQGQDVEVDEAACAALVRPEASVPCLIADCTYRWHVGTWMECSVSCGDGIQRRRDTCLGPQAQAPVPADFCQHLPKPVTVRGCWAGPCVGQGTPSLVPHEEAAAPGRTTATPAGASLEWSQARGLLFSPAPQPRRLLPGPQENSVQSSACGRQHLEPTGTIDMRGPGQADCAVAIGRPLGEVVTLRVLESSLNCSAGDMLLLWGRLTWRKMCRKLLDMTFSSKTNTLVVRQRCGRPGGGVLLRYGSQLAPETFYRECDMQLFGPWGEIVSPSLSPATSNAGGCRLFINVAPHARIAIHALATNMGAGTEGANASYILIRDTHSLRTTAFHGQQVLYWESESSQAEMEFSEGFLKAQASLRGQYWTLQSWVPEMQDPQSWKGKEGT
amount of fusion protein cleaved off and transferred to the new plate [1]: ~120 ng VWFA2-Nanoluc
luminescence (RLU) against NPP concentration, FIG. 1 [1]: This fusion protein is also cleaved by ADAMTS13 but here is not as much influence on light emission
luminescence (RLU) of fusion protein left on anti-VWF-A2 coated plate after incubation with 0-20% NPP [1]: did not demonstrate an effect of an increasing ADAMTS13 concentration
luminescence (RLU) transferred from anti-FLAG plate after A13 at 0-1 IU/mL [1]: a signal increase from ~1.5 towards ~1.7 M RLU for C-Flag
share of the initially offered quantity that was cleaved off and transferred [1]: ~12% of the initially offered quantity to the wells
SDS-PAGE (4-15% gradient, Coomassie Blue), FIG. 10 [2]: shows the expected fragments of the fusion-protein (SEQ ID NO: 17) after cleavage by adding ADAMTS13
luminescence (RLU) of fusion protein left on anti-VWF-A2 coated plate after incubation with 0-20% NPP [3]: shows a decreasing signal when the concentration NPP increases, suggesting that ADAMTS13 cleaves the fusion protein
luminescence (RLU) left on the Ni-NTA binding plate, A13 from lithium-heparin plasma, FIG. 8C [4]: 400000 RLU
